These results are taken from patent publication US20260116960A1 (SHANGHAI HONGCHENG BIOPHARMACEUTICAL, published 2026).

The term EC50 denotes the concentration that produces a half-maximal response. A higher EC50 goes with a less potent agent. For orientation: IC50 means the point on the concentration scale where inhibition reaches its midpoint. Low readings indicate greater potency in that assay, high ones weaker potency in that assay. A word on the Kd: it is the concentration at which binding is half-saturated. Read a high Kd as weaker binding.

In assay [1] the target is T1, human CTLA-4 on the cell surface (human, UniProt P16410 36-223).
T1 construct: whole, on cells; also called CHO-hCTLA-4 cells; CHOK1-hCTLA4 cells
T1 sequence (P16410 36-223): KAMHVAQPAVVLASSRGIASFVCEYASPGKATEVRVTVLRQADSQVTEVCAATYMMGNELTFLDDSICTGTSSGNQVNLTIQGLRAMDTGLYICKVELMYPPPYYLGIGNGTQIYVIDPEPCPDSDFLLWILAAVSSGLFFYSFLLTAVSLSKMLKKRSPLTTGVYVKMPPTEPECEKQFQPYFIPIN
The assay can be described thus: flow cytometry, CHO-hCTLA-4 cells, batch FACS#3. In general terms: Flow cytometry measures light scatter and fluorescence of single cells or particles in a stream.

Assay [2] deals with T1, human CTLA-4 on the cell surface. The assay can be described thus: flow cytometry competition, CHO-hCTLA-4 cells, biotin-human CD80. How it is done:
CHO-hCTLA-4 cells were obtained by trypsin digestion, washed twice with PBS containing 2% FBS (FACS buffer), and resuspended in FACS buffer. 200 μL of the cells were added to a 96-well U-bottom plate, approximately 2×10⁵ cells/well. After centrifugation at 300 g for 5 minutes, the supernatant was discarded. […] After washing three times with FACS buffer, 100 μL/well of 1:800 diluted PE Streptavidin was added and incubated at 4° C. for 50 min. After washing three times with FACS buffer, 150 μL/well of PBS was added to resuspend the cells, and the fluorescence signal was detected on a flow cytometer (BECKMAN COULTER cytoFLEX). The four-parameter model was used to fit the binding activity and the IC₅₀ value of the blocking activity of each antibody was calculated.

Assay [3] has the same target. As to the kind of experiment: flow cytometry on activated human T cells (CD3+), PE anti-human IgG Fc. How it is done:
(§1) Human peripheral blood mononuclear cells (PBMCs, Miaoshun (Shanghai) Biotechnology Co., Ltd., Catalog No.: A19K154025) were rapidly thawed in a 37° C. water bath, resuspended in T cell isolating solution, and counted. After centrifugation at 400 g for 10 minutes, the supernatant was removed and the cells were resuspended to 5×10⁷ cells/mL with T cell separation buffer. T cells were isolated according to the procedure of a T cell isolation kit (Stemcell, Catalog No.: 19051), and the obtained T cells were resuspended in culture medium. The cells were counted using NucleoCounter NC-200 and the T cell density was adjusted to approximately 1×10⁶ cells/mL. Dynabeads containing anti-CD3 and anti-CD28 antibodies (Invitrogen™, Catalog No.: 11132D) and 10 ng/ml hIL-2 (Peprotech, Catalog No.: 200-02) were added and cultured in a 37° C., 5% CO₂ incubator for 3 days. After removing Dynabeads and supernatant, the activated T cells were resuspended in FACS buffer. The cell density was adjusted to about 1×10⁶ cells/mL, and 100 μL of cell solution was added into a 96-well U-bottom plate, 1×10⁵ cells/well. After centrifugation at 500 g for 5 minutes, the supernatant was discarded and 100 μL of the trispecific antibody solution of the present application serially diluted 3-fold with FACS buffer was added in triplicate, with a starting concentration of 200 nM. After mixing, incubated at 4° C. for 60 minutes. After centrifugation and washing three times with FACS buffer, 100 μL/well of PE anti-human IgG Fc (Biolegend, Catalog No.: 366903) was added and incubated at 4° C. for 50 minutes. After washing the plate three times with FACS buffer, 100 μL/well of BV421 anti-human CD3 antibody (OKT3) (Biolegend, Catalog No.: 317344) was added and incubated at 4° C. for 50 minutes. After washing the plate three times with FACS buffer, 70 μL/well of PBS solution was added to resuspend the cells, and the fluorescent signal on CD3 T cells was detected on a flow cytometer (BD Cellesta). The binding activity was fitted using a four-parameter model, and the EC₅₀ value of each antibody binding to T cells was calculated.

Assay [4] shares this target. As to the kind of experiment: flow cytometry competition, 293T-hPD-1-hCTLA-4 cells (PD-1 co-expressed), biotin-human CD80. The procedure:
PD-1 and CTLA-4 are co-expressed on functionally exhausted T cells in the tumor microenvironment, and the expression level of PD-1 is higher than that of CTLA-4. […] 200 μL of the cells were added to a 96-well U-bottom plate, approximately 1.4×10⁵ cells/well. After centrifugation at 300 g for 5 minutes, the supernatant was discarded. […] After washing three times with FACS buffer, 100 μL/well of 1:800 diluted PE Streptavidin was added and incubated at 4° C. for 50 min. After washing three times with FACS buffer, 150 μL/well of PBS was added to resuspend the cells, and the fluorescence signal was detected on a flow cytometer (BECKMAN COULTER cytoFLEX). The binding activity was fitted using a four-parameter model, and the IC₅₀ value of the blocking activity of each antibody was calculated.

Assay [5] has as its target T2, human PD-1 protein (Acro, Catalog No. PD1-H5221) (human, UniProt Q15116 25-167).
T2 construct: Bought protein; also called human PD1-his; not shown: his tag
As to the kind of experiment: ELISA, plate coated with human PD-1 protein. The procedure:
ELISA was used to determine the activity of the trispecific antibodies binding to the PD-1 protein: 1 μg/mL human PD-1 protein (Acro, Catalog No.: PD1-H5221) was used to coat a high-adsorption 96-well ELISA plate and incubated at 4° C. overnight. On the next day, the plate was washed three times with PBST solution and blocked with 1% BSA-PBS solution at 37° C. for 1 hour. At the same time, 3-fold gradient dilutions of the antibody were prepared with 1% BSA-PBS solution, with a starting concentration of 10 nM. The antibodies of each gradient concentration were added to the blocked 96-well ELISA plate at 100 µL/well in triplicate and incubated at 37° C. for 1 hour. The plate was then washed three times with 0.05% PBST solution, and 100 μL/well of HRP-labeled secondary antibody (Sigma, Catalog No.: A0170) diluted at 1:5000 was added to the ELISA plate and incubated at 37° C. for 1 hour. The plate was washed three times with 0.05% PBST solution and developed with TMB. The absorbance of the 96-well ELISA plate at 450 nm was detected by an ELISA reader. The OD₄₅₀ value was fitted using a four-parameter model to calculate the EC₅₀ value of each antibody binding to PD-1.
Background: An ELISA detects its analyte on a solid surface through an enzyme-linked reagent.

Assay [6] concerns the target T3, human PD-1 on the cell surface (human, UniProt Q15116 25-288).
T3 construct: whole, on cells; also called cell surface PD-1
The assay can be described thus: flow cytometry, 293T-hPD-1 cells, batch FACS#1. The procedure: (§2) After centrifugation at 300 g for 5 minutes, the supernatant was discarded. The antibodies were serially diluted 3-fold with FACS buffer to obtain two gradient series solution FACS #1 and FACS #2, with the starting concentration of 200 nM (Table 5, FACS #1) or 100 nM (Table 5, FACS #2, FIG. 2), respectively. Then 100 μL/well was added to a 96-well plate in triplicate, mixed, and incubated at 4° C. for 60 min. The plate was centrifuged and washed three times with FACS buffer. 100 μL/well of 1:800 diluted AF647-anti-hIgG(H+L) (Jackson, Catalog No.: 109-605-003) was added and incubated at 4° C. for 50 minutes. After washing the plate three times with FACS buffer, 100 μL/well of FACS buffer was added to resuspend the cells, and the fluorescence signal was detected on a flow cytometer (BECKMAN COULTER cytoFLEX). The binding activity was fitted using a four-parameter model to calculate the EC₅₀ value of each antibody binding to PD-1.

Assay [7] has as its target T3, human PD-1 on the cell surface. As to the kind of experiment: flow cytometry, 293T-hPD-1 cells, batch FACS#2. The procedure:
as §2

The target is the same in assay [8]. As to the kind of experiment: flow cytometry, 293T-hPD-1 cells, comparison with pembrolizumab. How it is done:
as §2

Assay [9] has as its target human PD-1 protein (Acro, PD1-H5257) (human, UniProt Q15116 25-167). The assay can be described thus: competitive ELISA, PD-1 coated, biotin-PD-L1 as labelled ligand. The procedure: The next day, the plate was washed three times with PBS solution and blocked with 1% BSA-PBS solution at 37° C. for 1 hour. […] 100 μL of the antibody-protein mixture was added to each well of the blocked 96-well ELISA plate and incubated at 37° C. for 1 hour. After washing four times with PBST, 100 μL of Strep-HRP (BD, Catalog No. 554066) diluted 1:5000 was added to each well of the ELISA plate and incubated at 37° C. for 1 hour. After washing 4 times with PBST, TMB was used for color development. The absorbance at 450 nm and 630 nm was detected by a microplate reader, and OD450-OD630 was calculated. The fluorescence intensity was fitted using a four-parameter model, and the IC₅₀ value of the blocking activity of each antibody was calculated.

Assay [10] deals with T3, human PD-1 on the cell surface. The assay can be described thus: flow cytometry competition, 293T-hPD-1 cells, biotin-human PD-L1. The procedure: 50 μL of antibody solution serially diluted 3-fold in FACS buffer was added in triplicate, with a starting concentration of 200 nM. After mixing, incubated at 4° C. for 60 minutes. After washing three times with FACS buffer, 100 μL/well of 1:800 diluted PE Streptavidin was added and incubated at 4° C. for 50 min. After washing three times with FACS buffer, 150 μL/well of PBS was added to resuspend the cells, and the fluorescence signal was detected on a flow cytometer (BECKMAN COULTER cytoFLEX). The four-parameter model was used to fit the binding activity and the IC₅₀ value of the blocking activity of each antibody was calculated.

For assay [11] the target is unchanged. As to the kind of experiment: flow cytometry on activated human T cells (CD3+), PE anti-human IgG Fc. How it is done:
as §1

Assay [12] addresses T2, human PD-1 protein (Acro, Catalog No. …). As to the kind of experiment: BLI (Octet RED96e), antibody on AHC sensor, antigen as analyte 6.25-100 nM, 1:1 model. How it is done:
Octet® RED96e (ForteBio) was used to detect the affinity of trispecific antibodies to human PD-1, CTLA-4 and VEGFA. The specific method was as follows: the AHC Sensor was immersed in PBST (PBS containing 0.02% Tween) buffer for 10 minutes to activate the Sensor. The ligand (antibody to be tested) was diluted to 5 μg/mL with PBST buffer. […] The diluted ligand and analyte were added to the corresponding wells at 200 μL/well in triplicate. Program parameter settings: loading: 180 s, association: 180 s, dissociation: 600 s, regeneration: Gly-HCl pH 1.5, 30s, regeneration 3 times. […] Curve fit acceptance criteria: Full R\hat{ }2≥0.95.

The target in assay [13] is T3, human PD-1 on the cell surface. The assay can be described thus: blocking of PD-L1 binding to cell surface PD-1, comparison with pembrolizumab; comparison run with pembrolizumab, cell surface PD-1.

T3 sequence (Q15116 25-288): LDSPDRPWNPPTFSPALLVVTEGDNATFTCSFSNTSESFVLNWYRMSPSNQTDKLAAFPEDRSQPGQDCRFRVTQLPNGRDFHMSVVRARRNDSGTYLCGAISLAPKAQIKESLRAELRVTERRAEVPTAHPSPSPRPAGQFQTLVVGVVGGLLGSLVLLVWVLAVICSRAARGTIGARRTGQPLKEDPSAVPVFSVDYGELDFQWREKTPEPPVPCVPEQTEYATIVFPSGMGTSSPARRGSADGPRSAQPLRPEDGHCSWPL
T2 sequence (Q15116 25-167 limits assumed): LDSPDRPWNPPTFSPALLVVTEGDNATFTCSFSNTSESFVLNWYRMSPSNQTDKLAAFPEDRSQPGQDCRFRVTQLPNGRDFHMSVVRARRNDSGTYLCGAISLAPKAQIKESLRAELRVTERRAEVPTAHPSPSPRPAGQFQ
Chain of human PD-1 protein (Acro, PD1-H5257) (Q15116 25-167 limits assumed): as above

B1: 202F1-hIgG4 antibody (antibody, V domains shown)
VH: EVQLLESGGGLVQPGGSLRLSCAASGSIFSINHMAWYRQAPGKQRELVAGVNSRGTTNYVDSVKGRFTISRDNSKNTLYLQMNSLRAEDTAVYYCRALGGAVAAWGQGTLVTVSS
Take B1: the concentration giving a half-maximal response (EC50) in assay [1] was 2.31 nM; in assay [3], 1.46 nM. The IC50 in [2] came out at 10.1 nM; in [4], 4.74 nM.

B2: CQ1-3/1-11-hIgG4 antibody (antibody, V domains shown)
VH: EVQLVESGGGLVQPGGSLRLSCAASGFTFSSYGMSWVRQAPGKGLEWVSTISGGGRDTYYPDSVKGRFTISRDNSKNTLYLQMNSLRAEDTAVYYCARQNGITWFADWGQGTLVTVSS
VL: DIQMTQSPSSLSASVGDRVTITCRASESVDNYGISFMNWYQQKPGKAPKLLIYAASNQGSGVPSRFSGSGSGTDFTLTISSLQPEDFATYYCQQSKEVPWTFGGGTKVEIKR
notes: also called anti-PD-1 antibody CQ1-3/1-11
With B2, the concentration for a half-maximal effect (EC50) in [5] worked out at 0.041 nM; in assay [6] it was 2.8 nM; in [7] it was 1.12 nM; in assay [8], 4.34 nM; in assay [11], 0.244 nM. In addition, the values for the IC50 in assay [9], in assay [10] and in assay [13] were 0.731 nM, 4 nM and 3.19 nM, respectively. Binding in assay [12] was put at a Kd of 1.96 nM.
